Consider one substance from publication PMC6248175.

This assay deals with C3b (UniProt P01024). The experiment in a line: microplate/western blot assay; protocol 1, formation step: C3b-coated wells; FB 1,000 ng/ml, FD 10 ng/ml, 10 mM MgCl2, 100 ug/ml control or patients' IgGs, 12 min at 25 C, without or with FH 2,640 ng/ml during formation; density of the Bb band with FH over that without FH. For orientation: A western blot detects proteins with antibodies after separation by electrophoresis.

Regarding “factor H (from UniProt P08603 19-1231) (natural protein)”, the ratio Bb band + FH / Bb band without FH (with FH-CSA+ C3NeF IgGs of patients) stood at 0.58, the ratio Bb band + FH / Bb band without FH (with FH-CSA- C3NeF IgGs of patients) was 0.32 and the ratio Bb band + FH / Bb band without FH (with control IgGs) is 0.32.
